B1: NP_002788.1 (parent)
chain: DGWIRVSSDNVADLHEKYSGSTP

Variants of: B1
Test: protein stability index of a GFP-peptide fusion (GPS, HEK-293T) (PSI 1-6); higher = more stable
Details: c terminus: native
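Note: lentivirally expressed fusion library, cells FACS-sorted into six equal-sized GFP/DsRed ratio bins, PSI computed from sequencing read fractions per bin weighted by bin number.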

Variant	protein stability index
DGWIRVSHDNVADLHEKYSGSTP [S8H]	2.57
DGWIRVSMDNVADLHEKYSGSTP [S8M]	2.41
DGWIRVSIDNVADLHEKYSGSTP [S8I]	2.32
DGWIRVSEDNVADLHEKYSGSTP [S8E]	2.23
DGWIRVSNDNVADLHEKYSGSTP [S8N]	2.31
DGWIRVSWDNVADLHEKYSGSTP [S8W]	2.23
DGWIRVSADNVADLHEKYSGSTP [S8A]	2.31
DGWIRVSPDNVADLHEKYSGSTP [S8P]	3.95
DGWIRVSDDNVADLHEKYSGSTP [S8D]	2.99
DGWIRVSVDNVADLHEKYSGSTP [S8V]	2.42
DGWIRVSQDNVADLHEKYSGSTP [S8Q]	2.54
DGWIRVSCDNVADLHEKYSGSTP [S8C]	2.13
DGWIRVSGDNVADLHEKYSGSTP [S8G]	2.42
DGWIRVSYDNVADLHEKYSGSTP [S8Y]	2.14
DGWIRVSFDNVADLHEKYSGSTP [S8F]	2.36
DGWIRVSLDNVADLHEKYSGSTP [S8L]	2.28
DGWIRVSKDNVADLHEKYSGSTP [S8K]	2.68
DGWIRVSTDNVADLHEKYSGSTP [S8T]	2.87
DGWIRVSRDNVADLHEKYSGSTP [S8R]	2.31
DGWIEVSSDNVADLHEKYSGSTP [R5E]	2.96
DGWIHVSSDNVADLHEKYSGSTP [R5H]	2.62
DGWIKVSSDNVADLHEKYSGSTP [R5K]	2.49
DGWIIVSSDNVADLHEKYSGSTP [R5I]	2.67
DGWITVSSDNVADLHEKYSGSTP [R5T]	2.54
DGWISVSSDNVADLHEKYSGSTP [R5S]	2.51

Variant	protein stability index
DGWILVSSDNVADLHEKYSGSTP [R5L]	2.5
DGWIYVSSDNVADLHEKYSGSTP [R5Y]	2.76
DGWINVSSDNVADLHEKYSGSTP [R5N]	2.63
DGWIQVSSDNVADLHEKYSGSTP [R5Q]	2.52
DGWIWVSSDNVADLHEKYSGSTP [R5W]	2.41
DGWIGVSSDNVADLHEKYSGSTP [R5G]	3.15
DGWIAVSSDNVADLHEKYSGSTP [R5A]	2.31
DGWIDVSSDNVADLHEKYSGSTP [R5D]	3.01
DGWIPVSSDNVADLHEKYSGSTP [R5P]	4.15
DGWIMVSSDNVADLHEKYSGSTP [R5M]	2.64
DGWIVVSSDNVADLHEKYSGSTP [R5V]	2.42
DGWICVSSDNVADLHEKYSGSTP [R5C]	2.83
DGWIFVSSDNVADLHEKYSGSTP [R5F]	2.52
DGWIRVSSKNVADLHEKYSGSTP [D9K]	2.36
DGWIRVSSENVADLHEKYSGSTP [D9E]	2.34
DGWIRVSSCNVADLHEKYSGSTP [D9C]	2.4
DGWIRVSSSNVADLHEKYSGSTP [D9S]	2.74
DGWIRVSSANVADLHEKYSGSTP [D9A]	2.35
DGWIRVSSHNVADLHEKYSGSTP [D9H]	2.59
DGWIRVSSQNVADLHEKYSGSTP [D9Q]	2.41
DGWIRVSSLNVADLHEKYSGSTP [D9L]	2.42
DGWIRVSSYNVADLHEKYSGSTP [D9Y]	2.24
DGWIRVSSINVADLHEKYSGSTP [D9I]	2.27
DGWIRVSSRNVADLHEKYSGSTP [D9R]	2.3
DGWIRVSSNNVADLHEKYSGSTP [D9N]	2.29

Variant	protein stability index
DGWIRVSSVNVADLHEKYSGSTP [D9V]	2.54
DGWIRVSSMNVADLHEKYSGSTP [D9M]	2.59
DGWIRVSSTNVADLHEKYSGSTP [D9T]	2.43
DGWIRVSSGNVADLHEKYSGSTP [D9G]	2.82
DGWIRVSSFNVADLHEKYSGSTP [D9F]	2.27
DGWIRVSSPNVADLHEKYSGSTP [D9P]	2.25
DGWIRVSSWNVADLHEKYSGSTP [D9W]	2.19
DGWIRVHSDNVADLHEKYSGSTP [S7H]	3.09
DGWIRVDSDNVADLHEKYSGSTP [S7D]	4.55
DGWIRVQSDNVADLHEKYSGSTP [S7Q]	3.86
DGWIRVGSDNVADLHEKYSGSTP [S7G]	3.63
DGWIRVLSDNVADLHEKYSGSTP [S7L]	2.26
DGWIRVFSDNVADLHEKYSGSTP [S7F]	2.45
DGWIRVTSDNVADLHEKYSGSTP [S7T]	2.24
DGWIRVPSDNVADLHEKYSGSTP [S7P]	4.54
DGWIRVISDNVADLHEKYSGSTP [S7I]	2.25
DGWIRVYSDNVADLHEKYSGSTP [S7Y]	2.39
DGWIRVRSDNVADLHEKYSGSTP [S7R]	4.19
DGWIRVKSDNVADLHEKYSGSTP [S7K]	4.58
DGWIRVMSDNVADLHEKYSGSTP [S7M]	2.41
DGWIRVCSDNVADLHEKYSGSTP [S7C]	2.07
DGWIRVASDNVADLHEKYSGSTP [S7A]	2.32
DGWIRVNSDNVADLHEKYSGSTP [S7N]	4.02
DGWIRVESDNVADLHEKYSGSTP [S7E]	3.83
DGWIRVWSDNVADLHEKYSGSTP [S7W]	2.64

Variant	protein stability index
DGWIRVVSDNVADLHEKYSGSTP [S7V]	2.06
DGWIRVSSDNEADLHEKYSGSTP [V11E]	1.92
DGWIRVSSDNCADLHEKYSGSTP [V11C]	2.41
DGWIRVSSDNDADLHEKYSGSTP [V11D]	2.54
DGWIRVSSDNFADLHEKYSGSTP [V11F]	2.37
DGWIRVSSDNHADLHEKYSGSTP [V11H]	2.29
DGWIRVSSDNGADLHEKYSGSTP [V11G]	2.7
DGWIRVSSDNAADLHEKYSGSTP [V11A]	2.53
DGAIRVSSDNVADLHEKYSGSTP [W3A]	5.34
DGNIRVSSDNVADLHEKYSGSTP [W3N]	5.39
DGQIRVSSDNVADLHEKYSGSTP [W3Q]	5.42
DGVIRVSSDNVADLHEKYSGSTP [W3V]	5.65
DGGIRVSSDNVADLHEKYSGSTP [W3G]	5.28
DGTIRVSSDNVADLHEKYSGSTP [W3T]	5.5
DGYIRVSSDNVADLHEKYSGSTP [W3Y]	5.02
DGSIRVSSDNVADLHEKYSGSTP [W3S]	5.54
DGIIRVSSDNVADLHEKYSGSTP [W3I]	5.33
DGEIRVSSDNVADLHEKYSGSTP [W3E]	5.43
DGFIRVSSDNVADLHEKYSGSTP [W3F]	4.08
DGHIRVSSDNVADLHEKYSGSTP [W3H]	5.35
DGRIRVSSDNVADLHEKYSGSTP [W3R]	5.15
DGLIRVSSDNVADLHEKYSGSTP [W3L]	5.26
DGCIRVSSDNVADLHEKYSGSTP [W3C]	5.49
DGMIRVSSDNVADLHEKYSGSTP [W3M]	5.35
DGPIRVSSDNVADLHEKYSGSTP [W3P]	5.26

Variant	protein stability index
DGDIRVSSDNVADLHEKYSGSTP [W3D]	5.23
DGKIRVSSDNVADLHEKYSGSTP [W3K]	5.21
HGWIRVSSDNVADLHEKYSGSTP [D1H]	2.51
EGWIRVSSDNVADLHEKYSGSTP [D1E]	2.54
MGWIRVSSDNVADLHEKYSGSTP [D1M]	2.3
FGWIRVSSDNVADLHEKYSGSTP [D1F]	2.3
AGWIRVSSDNVADLHEKYSGSTP [D1A]	2.37
KGWIRVSSDNVADLHEKYSGSTP [D1K]	2.09
TGWIRVSSDNVADLHEKYSGSTP [D1T]	2.48
WGWIRVSSDNVADLHEKYSGSTP [D1W]	2.8
CGWIRVSSDNVADLHEKYSGSTP [D1C]	2.23
RGWIRVSSDNVADLHEKYSGSTP [D1R]	2.44
NGWIRVSSDNVADLHEKYSGSTP [D1N]	2.33
QGWIRVSSDNVADLHEKYSGSTP [D1Q]	2.36
PGWIRVSSDNVADLHEKYSGSTP [D1P]	2.7
SGWIRVSSDNVADLHEKYSGSTP [D1S]	2.53
LGWIRVSSDNVADLHEKYSGSTP [D1L]	2.2
IGWIRVSSDNVADLHEKYSGSTP [D1I]	2.92
VGWIRVSSDNVADLHEKYSGSTP [D1V]	2.36
YGWIRVSSDNVADLHEKYSGSTP [D1Y]	2.07
DGWIRWSSDNVADLHEKYSGSTP [V6W]	3.04
DGWIRISSDNVADLHEKYSGSTP [V6I]	2.21
DGWIRASSDNVADLHEKYSGSTP [V6A]	2.27
DGWIRFSSDNVADLHEKYSGSTP [V6F]	2.77
DGWIRTSSDNVADLHEKYSGSTP [V6T]	3.15

Variant	protein stability index
DGWIRHSSDNVADLHEKYSGSTP [V6H]	2.18
DGWIRLSSDNVADLHEKYSGSTP [V6L]	2.78
DGWIRYSSDNVADLHEKYSGSTP [V6Y]	2.48
DGWIRGSSDNVADLHEKYSGSTP [V6G]	4.34
DGWIRMSSDNVADLHEKYSGSTP [V6M]	2.31
DGWIRQSSDNVADLHEKYSGSTP [V6Q]	2.41
DGWIRCSSDNVADLHEKYSGSTP [V6C]	3
DGWIRRSSDNVADLHEKYSGSTP [V6R]	2.13
DGWIRNSSDNVADLHEKYSGSTP [V6N]	2.86
DGWIRDSSDNVADLHEKYSGSTP [V6D]	4.78
DGWIRSSSDNVADLHEKYSGSTP [V6S]	3.41
DGWIRPSSDNVADLHEKYSGSTP [V6P]	5.05
DGWIRESSDNVADLHEKYSGSTP [V6E]	3.77
DGWIRKSSDNVADLHEKYSGSTP [V6K]	2.16
DGWERVSSDNVADLHEKYSGSTP [I4E]	3.9
DGWDRVSSDNVADLHEKYSGSTP [I4D]	4.94
DGWGRVSSDNVADLHEKYSGSTP [I4G]	4.49
DGWWRVSSDNVADLHEKYSGSTP [I4W]	3.58
DGWHRVSSDNVADLHEKYSGSTP [I4H]	4.58
DGWKRVSSDNVADLHEKYSGSTP [I4K]	3.67
DGWSRVSSDNVADLHEKYSGSTP [I4S]	3.47
DGWRRVSSDNVADLHEKYSGSTP [I4R]	3.53
DGWYRVSSDNVADLHEKYSGSTP [I4Y]	4.36
DGWQRVSSDNVADLHEKYSGSTP [I4Q]	2.94
DGWTRVSSDNVADLHEKYSGSTP [I4T]	2.81

Variant	protein stability index
DGWLRVSSDNVADLHEKYSGSTP [I4L]	3.18
DGWVRVSSDNVADLHEKYSGSTP [I4V]	2.17
DGWMRVSSDNVADLHEKYSGSTP [I4M]	3.39
DGWNRVSSDNVADLHEKYSGSTP [I4N]	4.94
DGWFRVSSDNVADLHEKYSGSTP [I4F]	4.14
DGWARVSSDNVADLHEKYSGSTP [I4A]	2.92
DGWCRVSSDNVADLHEKYSGSTP [I4C]	3.19
DGWPRVSSDNVADLHEKYSGSTP [I4P]	5.29
DGWIRVSSDKVADLHEKYSGSTP [N10K]	2.28
DGWIRVSSDEVADLHEKYSGSTP [N10E]	2.53
DGWIRVSSDVVADLHEKYSGSTP [N10V]	2.39
DGWIRVSSDHVADLHEKYSGSTP [N10H]	2.22
DGWIRVSSDCVADLHEKYSGSTP [N10C]	2.21
DGWIRVSSDAVADLHEKYSGSTP [N10A]	1.84
DGWIRVSSDFVADLHEKYSGSTP [N10F]	2.4
DGWIRVSSDWVADLHEKYSGSTP [N10W]	2.42
DGWIRVSSDDVADLHEKYSGSTP [N10D]	2.54
DGWIRVSSDMVADLHEKYSGSTP [N10M]	2.67
DGWIRVSSDRVADLHEKYSGSTP [N10R]	2.04
DGWIRVSSDYVADLHEKYSGSTP [N10Y]	2.36
DGWIRVSSDIVADLHEKYSGSTP [N10I]	2.28
DGWIRVSSDGVADLHEKYSGSTP [N10G]	2.86
DGWIRVSSDSVADLHEKYSGSTP [N10S]	2.17
DGWIRVSSDLVADLHEKYSGSTP [N10L]	2.69
DGWIRVSSDTVADLHEKYSGSTP [N10T]	2.37

Variant	protein stability index
DGWIRVSSDPVADLHEKYSGSTP [N10P]	2.58
DLWIRVSSDNVADLHEKYSGSTP [G2L]	2.54
DCWIRVSSDNVADLHEKYSGSTP [G2C]	2.21
DHWIRVSSDNVADLHEKYSGSTP [G2H]	2.51
DSWIRVSSDNVADLHEKYSGSTP [G2S]	2.13
DRWIRVSSDNVADLHEKYSGSTP [G2R]	2.97
DKWIRVSSDNVADLHEKYSGSTP [G2K]	2.13
DWWIRVSSDNVADLHEKYSGSTP [G2W]	2.27
DQWIRVSSDNVADLHEKYSGSTP [G2Q]	2.56
DAWIRVSSDNVADLHEKYSGSTP [G2A]	2.25
DDWIRVSSDNVADLHEKYSGSTP [G2D]	2.9
DEWIRVSSDNVADLHEKYSGSTP [G2E]	2.51
DVWIRVSSDNVADLHEKYSGSTP [G2V]	2.49
DPWIRVSSDNVADLHEKYSGSTP [G2P]	2.71
DNWIRVSSDNVADLHEKYSGSTP [G2N]	2.42
DTWIRVSSDNVADLHEKYSGSTP [G2T]	2.09
DMWIRVSSDNVADLHEKYSGSTP [G2M]	2.36
DYWIRVSSDNVADLHEKYSGSTP [G2Y]	2.78
DFWIRVSSDNVADLHEKYSGSTP [G2F]	2.47
